Test results published in US20130071431A1, “Method for Preserving Polypeptides Using A Sugar and Polyethyleneimine” (Stabilitech Ltd., priority 2008, published 2013).

Assays:
[1] = Luciferase luminescence assay after freeze-drying (Example 4); format: biochemical; conditions: freeze-dried in excipient of 1.092M sucrose, 0.0499M stachyose and 27 nM, 2.7 nM or 0.27 nM PEI
Procedure: The final concentrations of PEI and sugars were: • PEI: 27 nM, 2.7 nM or 0.27 nM • sucrose: 1.092 M, and • stachyose: 0.0499M.
All vials were set up in triplicate.
The vials contained a free-flowing freeze-dried powder. The powder was reconstituted by adding 1 ml PBS. […] Luciferase assay reagent was added to each well according to manufacturer's instructions and luminescence was read on a Synergy 2 luminometer.

[2] = Luciferase assay with luciferin reagent, freeze-dried with BSA (Example 10); format: biochemical
Procedure: Luciferase stock was purchased from Promega Corporation (code E1701) and consisted of 1 mg of purified protein at a concentration of 13.5 mg/ml, correlating to 2.13×10^−4M using an approximate molecular weight of 60 kDa. The stock was thawed and refrozen (untouched, without addition of any excipients) at −45° C. as 44 aliquots. These aliquots were subsequently used for all experiments.
Luciferin was purchased from Promega Corporation as a kit that also included ATP (code E1500). This kit shall henceforth be referred to as luciferin reagent and consisted of pairs of vials that required mixing before use. One vial contained a lyophilised powder and the other 10 ml of a frozen liquid. To produce stocks, these vials were mixed and then refrozen as 1 ml aliquots at −20° C. in standard 1.5 ml Eppendorf tubes. Vials and reconstituted luciferin reagent were stored at −20° C. in an opaque box and only removed under conditions of near-darkness. […]
The luciferase assay involved the mixing of various concentrations of luciferase with an undiluted aliquot of luciferin reagent in black opaque 96 well plates. The initial (linear) phase of this luminogenic reaction was then immediately quantified by a luminometer. As per the manufacturer's recommendation, luciferase samples were of a 100 μl volume and luminescence was initiated by addition of 100 μl of luciferin reagent. […]

For “Luciferase: luciferase enzyme purchased from Promega (code E1701 in Example 10)”, the “thermal stability of luciferase (luminescence)” value [1] was “improved thermal stability”, the “lyoprotectant effects of sugar mix and PEI on luciferase activity” value ([2]; both added together before freeze-drying) was “synergistic” and the “lyoprotectant contribution of excipient component on luciferase activity” value ([2]; sugar mix or PEI added after freeze-drying) was “wholly negates its contribution”.
